According to patent US20190256846A1 (AGENCY FOR SCIENCE TECHNOLOGY AND RESEARCH, published 2019):

Columns and labels:
[1] = target: ErbB4 on MCF-7 cells (endogenous) (UniProt Q15303); assay: cell-based or functional assay
[2] = target: T1, ErbB4 mutant lacking the C-terminal PDZ binding motif (ErbB4 APBM) (UniProt Q15303 26-1308, limits assumed); assay: GST pull-down from lysates of overexpressing cells, Western blot with anti-ErbB4
T1 construct: The mutation is a triple alanine substitution of the last three residues, not a deletion; Present in HEK293 cell lysate; also called mutant with a disrupted PBM
T1 sequence (Q15303 other isoform, or with tags, fused parts or gaps mutant limits assumed): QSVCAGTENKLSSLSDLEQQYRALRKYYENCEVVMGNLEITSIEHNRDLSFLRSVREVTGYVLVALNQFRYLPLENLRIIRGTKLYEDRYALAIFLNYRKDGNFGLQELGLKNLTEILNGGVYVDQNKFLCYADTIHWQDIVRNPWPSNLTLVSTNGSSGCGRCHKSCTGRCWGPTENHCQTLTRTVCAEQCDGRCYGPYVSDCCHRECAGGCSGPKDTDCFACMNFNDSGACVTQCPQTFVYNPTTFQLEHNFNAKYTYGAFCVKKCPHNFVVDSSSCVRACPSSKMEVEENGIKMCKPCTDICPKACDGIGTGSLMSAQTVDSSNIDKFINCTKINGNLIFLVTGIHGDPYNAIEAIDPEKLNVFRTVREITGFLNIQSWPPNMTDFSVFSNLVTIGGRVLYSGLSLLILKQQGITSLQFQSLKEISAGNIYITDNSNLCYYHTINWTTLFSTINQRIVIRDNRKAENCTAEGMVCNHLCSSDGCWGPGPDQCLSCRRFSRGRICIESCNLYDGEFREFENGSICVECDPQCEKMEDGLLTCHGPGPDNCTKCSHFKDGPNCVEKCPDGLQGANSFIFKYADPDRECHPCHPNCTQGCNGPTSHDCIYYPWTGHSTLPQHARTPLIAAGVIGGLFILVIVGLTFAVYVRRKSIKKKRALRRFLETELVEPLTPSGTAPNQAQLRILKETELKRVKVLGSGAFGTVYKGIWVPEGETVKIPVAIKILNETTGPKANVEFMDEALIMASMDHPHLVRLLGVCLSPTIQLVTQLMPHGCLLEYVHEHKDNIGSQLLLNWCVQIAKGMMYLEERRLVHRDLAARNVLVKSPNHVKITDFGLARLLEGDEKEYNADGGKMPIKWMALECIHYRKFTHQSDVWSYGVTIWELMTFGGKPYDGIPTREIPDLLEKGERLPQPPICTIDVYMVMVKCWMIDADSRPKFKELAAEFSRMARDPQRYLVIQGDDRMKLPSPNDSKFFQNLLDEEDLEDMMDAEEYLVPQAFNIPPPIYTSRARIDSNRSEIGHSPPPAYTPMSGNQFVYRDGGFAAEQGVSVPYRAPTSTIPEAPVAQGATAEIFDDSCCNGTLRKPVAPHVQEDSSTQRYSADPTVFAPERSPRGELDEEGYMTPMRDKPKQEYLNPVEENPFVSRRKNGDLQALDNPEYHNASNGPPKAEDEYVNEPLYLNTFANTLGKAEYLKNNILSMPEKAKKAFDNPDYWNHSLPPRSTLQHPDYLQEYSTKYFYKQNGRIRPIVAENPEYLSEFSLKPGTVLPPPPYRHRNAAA
Method: ErbB4 and mutant was transfected into HEK293 cells using JetPrimePolyPlus transfection kit (PolyPlus Transfections) according to manufacturer's instructions. […] GST and GST ZO-1PDZ1-3 domain fusion proteins were generated, purified, and bound to Glutathione Sepharose-4B (GE Healthcare Life Sciences) using standard protocols. Bound proteins were quantified by SDS-PAGE by using known amounts of BSA as standards. 18 μl of GST beads were incubated with 1 μg of GST fusion proteins. Unbound proteins were removed by washing with ice cold PBS. 300 μg of the transfected cells were then added and incubated at 4° C. for 2 hr followed by washing 4 times with ice cold lysis buffer. The bound fractions were eluted with 4×SDS-PAGE sample buffer, separated by SDS PAGE, immunoblotted onto PVDF membranes and probed with Rabbit anti-ErbB4 antibodies.

ErbB4 on MCF-7 cells (endogenous), sequence (Q15303 26-1308 limits assumed): as the sequence (Q15303 other isoform, or with tags, fused parts or gaps mutant limits assumed) above, with A1281T, A1282V, A1283V counted along it

Row | Erk activation (Erk phosphorylation, Western blot) in Tjp1 shRNA MCF-7 cells, 15 min stimulation [1] | Erk activation (Erk phosphorylation, Western blot) in control shRNA MCF-7 cells, 15 min stimulation [1] | binding result [2] | Molecule
1 | 2.5 ng/mL | 50 to 100 ng/mL |  | human NRG-1 (Cell Signalling Technology, Cat. #5218) (from UniProt Q02297 177-241) (ligand)
2 |  |  | no binding | GST fusion protein carrying the three PDZ domains of Tjp1 (GST-Tjp1 PDZ1-3) (other, human, UniProt Q07157 1-503, looked up, domain: PDZ 1-3 domains; also called GST ZO-1PDZ1-3 domain fusion protein; ZO-1 (Tjp1) PDZ domains; not shown: glutathione S-transferase (GST) tag encoded by the pGEX 4T-1 vector) MSARAAAAKSTAMEETAIWEQHTVTLHRAPGFGFGIAISGGRDNPHFQSGETSIVISDVLKGGPAEGQLQENDRVAMVNGVSMDNVEHAFAVQQLRKSGKNAKITIRRKKKVQIPVSRPDPEPVSDNEEDSYDEEIHDPRSGRSGVVNRRSEKIWPRDRSASRERSLSPRSDRRSVASSQPAKPTKVTLVKSRKNEEYGLRLASHIFVKEISQDSLAARDGNIQEGDVVLKINGTVTENMSLTDAKTLIERSKGKLKMVVQRDERATLLNVPDLSDSIHSANASERDDISEIQSLASDHSGRSHDRPPRRSRSRSPDQRSEPSDHSRHSPQQPSNGSLRSRDEERISKPGAVSTPVKHADDHTPKTVEEVTVERNEKQTPSLPEPKPVYAQVGQPDVDLPVSPSDGVLPNSTHEDGILRPSMKLVKFRKGDSVGLRLAGGNDVGIFVAGVLEDSPAAKEGLEEGDQILRVNNVDFTNIIREEAVLFLLDLPKGEEVTILAQKK
